Among the data in patent US20070224188A1 are FcRn pH6.0 (% of wild type) and FcRn6.0 (% of wild type) values, retold here.

The target of the test is biotin-labeled soluble FcRn. Kind of test: FcRn ELISA pH 6.0. For orientation: ELISA stands for enzyme-linked immunosorbent assay.

Regarding anti-CD20 IgG1 P247Q (antibody), the FcRn pH6.0 (% of wild type) turned out to be 26.

The substance anti-CD20 IgG1 P271T (antibody) gave a FcRn pH6.0 (% of wild type) of 96.

Substance anti-CD20 IgG1 E430T (antibody) gave a FcRn pH6.0 (% of wild type) of 137.

anti-CD20 IgG1 D265S (antibody) returned a FcRn pH6.0 (% of wild type) of 66.

Substance anti-CD20 IgG1 P247L (antibody) gave a FcRn pH6.0 (% of wild type) of 57.

With anti-CD20 IgG1 D280T (antibody), the FcRn pH6.0 (% of wild type) stood at 60.

anti-CD20 IgG1 E272N (antibody): the FcRn pH6.0 (% of wild type) stood at 110.

For the substance anti-CD20 IgG1 T307A (antibody), the FcRn pH6.0 (% of wild type) is 233.

On to anti-CD20 IgG1 E382K (antibody), for which the FcRn pH6.0 (% of wild type) was found to be 153.

Substance anti-CD20 IgG1 E430M (antibody) displayed a FcRn pH6.0 (% of wild type) of 195.

Turning to anti-CD20 IgG1 A327T (antibody), the FcRn pH6.0 (% of wild type) is 54.

In the case of anti-CD20 IgG1 D249Y (antibody), the FcRn pH6.0 (% of wild type) is 41.

anti-CD20 IgG1 E382A (antibody) came in with a FcRn pH6.0 (% of wild type) of 103.

As for anti-CD20 IgG1 E258D (antibody), the FcRn pH6.0 (% of wild type) stood at 361.

anti-CD20 IgG1 286F307E (antibody) displayed a FcRn6.0 (% of wild type) of 431.

Substance anti-CD20 IgG1 N434H (antibody) yielded a FcRn pH6.0 (% of wild type) of 855.

anti-CD20 IgG1 283R311I (antibody) had a FcRn6.0 (% of wild type) of 531.

anti-CD20 IgG1 D376W (antibody) showed a FcRn pH6.0 (% of wild type) of 1.

anti-CD20 IgG1 V264S (antibody): the FcRn pH6.0 (% of wild type) was 78.

With anti-CD20 IgG1 P247F (antibody), the FcRn pH6.0 (% of wild type) is 6.

Regarding anti-CD20 IgG1 N315K (antibody), the FcRn pH6.0 (% of wild type) came out at 88.

anti-CD20 IgG1 T256F (antibody) yielded a FcRn pH6.0 (% of wild type) of 5.

The substance anti-CD20 IgG1 K248W (antibody) displayed a FcRn pH6.0 (% of wild type) of 30.

Consider anti-CD20 IgG1 G316F (antibody), for which the FcRn pH6.0 (% of wild type) turned out to be 34.

As to anti-CD20 IgG1 E283A (antibody), the FcRn pH6.0 (% of wild type) turned out to be 126.

Substance anti-CD20 IgG1 E382R (antibody) returned a FcRn pH6.0 (% of wild type) of 165.

anti-CD20 IgG1 P343Q (antibody) returned a FcRn pH6.0 (% of wild type) of 442.

anti-CD20 IgG1 I253A (antibody) yielded a FcRn pH6.0 (% of wild type) of 0.

In turn, anti-CD20 IgG1 S267K (antibody) came in with a FcRn pH6.0 (% of wild type) of 102.

Turning to anti-CD20 IgG1 Q311T (antibody), the FcRn pH6.0 (% of wild type) amounted to 131.

anti-CD20 IgG1 I377P (antibody) yielded a FcRn pH6.0 (% of wild type) of 98.

On to anti-CD20 IgG1 376V430R (antibody), for which the FcRn6.0 (% of wild type) stood at 188.

anti-CD20 IgG1 E380N (antibody): the FcRn pH6.0 (% of wild type) amounted to 142.

The substance anti-CD20 IgG1 D312P (antibody) displayed a FcRn pH6.0 (% of wild type) of 546.

The substance anti-CD20 IgG1 P343L (antibody) came in with a FcRn pH6.0 (% of wild type) of 125.

Substance anti-CD20 IgG1 E382H (antibody) returned a FcRn pH6.0 (% of wild type) of 135.

For the substance anti-CD20 IgG1 A339D (antibody), the FcRn pH6.0 (% of wild type) amounted to 80.

anti-CD20 IgG1 E272H (antibody) gave a FcRn pH6.0 (% of wild type) of 157.

As for anti-CD20 IgG1 D265Y (antibody), the FcRn pH6.0 (% of wild type) came out at 33.

anti-CD20 IgG1 T256E (antibody) registered a FcRn pH6.0 (% of wild type) of 339.

With anti-CD20 IgG1 376V430Q (antibody), the FcRn6.0 (% of wild type) was 212.

With anti-CD20 IgG1 R301W (antibody), the FcRn pH6.0 (% of wild type) was 119.

The substance anti-CD20 IgG1 A339Y (antibody) returned a FcRn pH6.0 (% of wild type) of 92.

On to anti-CD20 IgG1 A378N (antibody), for which the FcRn pH6.0 (% of wild type) was found to be 180.

In turn, anti-CD20 IgG1 E382W (antibody) came in with a FcRn pH6.0 (% of wild type) of 172.

For the substance anti-CD20 IgG1 L432R (antibody), the FcRn pH6.0 (% of wild type) was found to be 38.

In the case of anti-CD20 IgG1 E272R (antibody), the FcRn pH6.0 (% of wild type) came to 351.

anti-CD20 IgG1 G237E (antibody) came in with a FcRn pH6.0 (% of wild type) of 93.

As for anti-CD20 IgG1 H429F (antibody), the FcRn pH6.0 (% of wild type) came to 77.

The substance anti-CD20 IgG1 S254P (antibody) yielded a FcRn pH6.0 (% of wild type) of 3.

Consider anti-CD20 IgG1 L251W (antibody), for which the FcRn pH6.0 (% of wild type) was 0.

The substance anti-CD20 IgG1 S254E (antibody) came in with a FcRn pH6.0 (% of wild type) of 6.

In turn, anti-CD20 IgG1 314Y332E440Y (antibody) yielded a FcRn6.0 (% of wild type) of 82.

As for anti-CD20 IgG1 D249P (antibody), the FcRn pH6.0 (% of wild type) worked out at 138.

Take anti-CD20 IgG1 L251H (antibody): the FcRn pH6.0 (% of wild type) is 46.

As to anti-CD20 IgG1 S424M (antibody), the FcRn pH6.0 (% of wild type) was found to be 60.

anti-CD20 IgG1 G341Q (antibody) came in with a FcRn pH6.0 (% of wild type) of 72.

With anti-CD20 IgG1 G341I (antibody), the FcRn pH6.0 (% of wild type) amounted to 36.

Consider anti-CD20 IgG1 256P314Y440Y (antibody), for which the FcRn6.0 (% of wild type) is 79.

anti-CD20 IgG1 D270G (antibody): the FcRn pH6.0 (% of wild type) turned out to be 108.

Turning to anti-CD20 IgG1 258D272R (antibody), the FcRn6.0 (% of wild type) was 383.

anti-CD20 IgG1 S254L (antibody) showed a FcRn pH6.0 (% of wild type) of 74.

Substance anti-CD20 IgG1 314Y440Y (antibody) displayed a FcRn6.0 (% of wild type) of 78.

The substance anti-CD20 IgG1 K439Q (antibody) displayed a FcRn pH6.0 (% of wild type) of 74.

anti-CD20 IgG1 Y373K (antibody) yielded a FcRn pH6.0 (% of wild type) of 70.

Turning to anti-CD20 IgG1 A339W (antibody), the FcRn pH6.0 (% of wild type) amounted to 156.

Regarding anti-CD20 IgG1 Q438K (antibody), the FcRn pH6.0 (% of wild type) stood at 169.

anti-CD20 IgG1 Y373Q (antibody) had a FcRn pH6.0 (% of wild type) of 55.

Consider anti-CD20 IgG1 T256Y (antibody), for which the FcRn pH6.0 (% of wild type) turned out to be 68.

anti-CD20 IgG1 E269N (antibody) showed a FcRn pH6.0 (% of wild type) of 92.

Consider anti-CD20 IgG1 V279F (antibody), for which the FcRn pH6.0 (% of wild type) was determined as 113.

As for anti-CD20 IgG1 K248Q (antibody), the FcRn pH6.0 (% of wild type) came out at 38.

The substance anti-CD20 IgG1 S440V (antibody) yielded a FcRn pH6.0 (% of wild type) of 98.

anti-CD20 IgG1 P238I (antibody) showed a FcRn pH6.0 (% of wild type) of 94.

For anti-CD20 IgG1 E430G (antibody), the FcRn pH6.0 (% of wild type) came to 131.

anti-CD20 IgG1 G341D (antibody) registered a FcRn pH6.0 (% of wild type) of 52.

Turning to anti-CD20 IgG1 257I434H (antibody), the FcRn6.0 (% of wild type) stood at 472.

Substance anti-CD20 IgG1 I377G (antibody) came in with a FcRn pH6.0 (% of wild type) of 76.

Substance anti-CD20 IgG1 P247N (antibody) displayed a FcRn pH6.0 (% of wild type) of 41.

In turn, anti-CD20 IgG1 T250R (antibody) yielded a FcRn pH6.0 (% of wild type) of 62.

In turn, anti-CD20 IgG1 256P440Y (antibody) gave a FcRn6.0 (% of wild type) of 122.

In the case of anti-CD20 IgG1 I332V (antibody), the FcRn pH6.0 (% of wild type) was determined as 115.

anti-CD20 IgG1 D376S (antibody) returned a FcRn pH6.0 (% of wild type) of 134.

For anti-CD20 IgG1 S440A (antibody), the FcRn pH6.0 (% of wild type) was determined as 82.

Regarding anti-CD20 IgG1 A431P (antibody), the FcRn pH6.0 (% of wild type) came to 29.

For anti-CD20 IgG1 A330K (antibody), the FcRn pH6.0 (% of wild type) turned out to be 108.

With anti-CD20 IgG1 I332E (antibody), the FcRn pH6.0 (% of wild type) came out at 86.

anti-CD20 IgG1 I332M (antibody) had a FcRn pH6.0 (% of wild type) of 128.

anti-CD20 IgG1 283R307E (antibody) displayed a FcRn6.0 (% of wild type) of 400.

Consider anti-CD20 IgG1 279D307E (antibody), for which the FcRn6.0 (% of wild type) worked out at 522.

For the substance anti-CD20 IgG1 S440N (antibody), the FcRn pH6.0 (% of wild type) was determined as 82.

As for anti-CD20 IgG1 A339L (antibody), the FcRn pH6.0 (% of wild type) was determined as 83.

Take anti-CD20 IgG1 247L251F376I (antibody): the FcRn6.0 (% of wild type) stood at 61.

Regarding anti-CD20 IgG1 E283W (antibody), the FcRn pH6.0 (% of wild type) was 117.

Take anti-CD20 IgG1 Y373M (antibody): the FcRn pH6.0 (% of wild type) amounted to 53.

anti-CD20 IgG1 E293V (antibody) registered a FcRn pH6.0 (% of wild type) of 127.

In the case of anti-CD20 IgG1 Y373N (antibody), the FcRn pH6.0 (% of wild type) came out at 61.

In turn, anti-CD20 IgG1 D270K (antibody) gave a FcRn pH6.0 (% of wild type) of 122.

As for anti-CD20 IgG1 247L332E (antibody), the FcRn6.0 (% of wild type) was determined as 78.

For anti-CD20 IgG1 N434W (antibody), the FcRn pH6.0 (% of wild type) was determined as 1340.

For the substance anti-CD20 IgG1 E283K (antibody), the FcRn pH6.0 (% of wild type) came to 246.

In the case of anti-CD20 IgG1 E382Q (antibody), the FcRn pH6.0 (% of wild type) is 162.

With anti-CD20 IgG1 Y373F (antibody), the FcRn pH6.0 (% of wild type) turned out to be 110.

The substance anti-CD20 IgG1 P343Y (antibody) gave a FcRn pH6.0 (% of wild type) of 112.

anti-CD20 IgG1 Y436I (antibody) registered a FcRn pH6.0 (% of wild type) of 194.

Regarding anti-CD20 IgG1 G341N (antibody), the FcRn pH6.0 (% of wild type) was 53.

For the substance anti-CD20 IgG1 A431K (antibody), the FcRn pH6.0 (% of wild type) was 176.

Consider anti-CD20 IgG1 311I376V (antibody), for which the FcRn6.0 (% of wild type) is 414.

anti-CD20 IgG1 D376M (antibody) returned a FcRn pH6.0 (% of wild type) of 129.
